Experiment [1] has as its target 14-3-3τ (UniProt P27348). Briefly: GST pull-down from co-transfected cells. Conditions: reference: GST-HIP-55 wild type; sites S269,T291.
The target in experiment [2] is MAP4K1 (UniProt Q92918). Nature of the experiment: GST pull-down from transfected cells. The following applies: reference: HIP-55 wild type; sites S269,T291.

Take “HIP-55 (from UniProt Q9UJU6) GST-HIP-55 S269A/T291A (HIP-55AA)”: the “binding against the reference” value in experiment [1] is recorded as “lost”.

For “HIP-55 (from UniProt Q9UJU6) HIP-55 S269A/T291A (HIP-55AA)”, the “binding against the reference” value in experiment [2] is given as “weaker”.
